From PMC11086627, “Substrate displacement of CK1 C-termini regulates kinase specificity” (Science Advances, 2024) come the findings set out here.

Square brackets hold non-standard residues; d marks the D form. Ends that are not written are not given here. * marks the point of attachment. Biotin = O=C1N[C@H]2[C@H](CS[C@H]2CCCCC(=O)*)N1; pT = C[C@@H](OP(=O)(O)O)[C@H](N)C(=O)O; pS = N[C@@H](COP(=O)(O)O)C(=O)O

Experiment [1] concerns the target Hhp1 Cter-6P peptide (amino acids 297 to 365 of Hhp1, phosphorylated at six sites, biotin-conjugated) (S. pombe) (UniProt P40235). Put plainly: pull-down; equilibrium binding assay: peptide-conjugated streptavidin beads at 0 to 847 μM peptide incubated with 100 ng of MBP-Hhp1ΔC in binding buffer [50 mM tris (pH 7.0), 25 mM NaCl, 1 mM EDTA, 1 mM DTT], 1 hour at 4°C; unbound kinase in the supernatant by Western blot and densitometry; one-site specific binding fit. On the technique in general: Immunoblotting shows a protein as a band on a membrane.

Experiment [2] has the same target. Put plainly: pull-down; competitive equilibrium binding assay: as the equilibrium binding assay on peptide beads, with 25 μM substrate (casein or Rec11) added along with the kinase; fit constrained to Bmax = 1 for the apparent Kd; Ki from Kd(app)=Kd(1+[I]/Ki).
The target of the next experiment is Hhp1 Hhp1ΔC, 1-296 (UniProt P40235). Put plainly: biotin-peptide streptavidin bead pull-down. The note with it: reference: unphosphorylated Cter peptide; sites S326,S327,T345,T346,S354,T356.
Experiment [3] deals with MBP-Hhp1ΔC (Hhp1 amino acids 1 to 296) (S. pombe) (UniProt P40235). Description: pull-down; competitive equilibrium binding assay: as the equilibrium binding assay on peptide beads, with 25 μM substrate (casein or Rec11) added along with the kinase; fit constrained to Bmax = 1 for the apparent Kd; Ki from Kd(app)=Kd(1+[I]/Ki).
Experiment [4] has as its target Hhp1 C-terminus (Cter), 297-365 (UniProt P40235). Put plainly: equilibrium bead binding, supernatant depletion. Conditions: reference: wild-type Hhp1ΔC; sites T221,T222.
For the next experiment, the target named is CK1ε CK1εΔC, 1-294 (UniProt P49674). Description: biotin-peptide streptavidin bead pull-down. Conditions: reference: unphosphorylated EC peptide; sites S389,S390,S391,S405,T407,S408.
The target of the next experiment is T1, MBP-Hhp1ΔC-VV (S. pombe, UniProt P40235 1-296).
T1 chain: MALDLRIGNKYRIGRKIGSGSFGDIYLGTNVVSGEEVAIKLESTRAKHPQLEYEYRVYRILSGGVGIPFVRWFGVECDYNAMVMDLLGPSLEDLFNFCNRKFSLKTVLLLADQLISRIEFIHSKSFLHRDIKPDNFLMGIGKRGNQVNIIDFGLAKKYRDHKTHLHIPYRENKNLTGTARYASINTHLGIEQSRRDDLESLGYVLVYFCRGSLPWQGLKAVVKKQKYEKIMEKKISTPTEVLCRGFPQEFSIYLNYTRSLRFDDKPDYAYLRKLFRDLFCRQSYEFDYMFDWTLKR

Another experiment concerns the target T2, MBP-CK1εΔC-T220N (human, UniProt P49674 1-294, T220N).
T2 construct: human CK1ε, amino acids 1-294, kinase domain autophosphorylation site T220 mutated; source: E. coli Rosetta2(DE3)pLysS, purified (amylose beads, eluted with maltose)
T2 sequence (looked up): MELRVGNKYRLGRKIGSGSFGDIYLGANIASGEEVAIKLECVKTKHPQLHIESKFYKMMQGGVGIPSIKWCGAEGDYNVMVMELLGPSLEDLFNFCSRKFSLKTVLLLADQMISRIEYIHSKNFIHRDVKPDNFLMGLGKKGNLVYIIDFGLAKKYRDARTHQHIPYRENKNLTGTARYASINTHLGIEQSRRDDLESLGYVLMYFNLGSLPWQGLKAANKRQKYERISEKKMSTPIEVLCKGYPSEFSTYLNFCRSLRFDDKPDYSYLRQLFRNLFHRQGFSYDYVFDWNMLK
Description: pull-down; biotin peptide on streptavidin sepharose (500 μM peptide) incubated with 2 μg of MBP-kinaseΔC in binding buffer [50 mM tris (pH 7.0), 25 mM NaCl, 1 mM EDTA, 1 mM DTT], 1 hour at 4°C; beads blocked in 5% BSA; bound protein detected by Western blot with anti-MBP. Conditions: both partners purified.

For experiment [5], the target named is MBP-CK1εΔC (human CK1ε amino acids 1-294) (human) (UniProt P49674). Description: ITC; Nano-ITC, 25°C, 10 mM NaPO4 (pH 7.5), 150 mM NaCl, 0.25 mM TCEP; cell: 100 μM MBP-Hhp1ΔC or MBP-CK1εΔC; syringe: 2 mM peptide; single-site binding model; duplicate. (ITC needs no label: the signal is the heat of the interaction.)
For experiment [6], the target named is T3, MBP-Hhp1ΔC (Hhp1 amino acids 1 to 296) (S. pombe, UniProt P40235 1-296).
T3 construct: Hhp1, CK1 enzyme of Schizosaccharomyces pombe, C-terminally truncated, amino acids 1-296; cDNA cloned into pMAL-C2; also called Hhp1-delC; Hhp1 kinase domain; source: E. coli Rosetta2(DE3)pLysS, purified (amylose beads, eluted with maltose)
T3 sequence (looked up): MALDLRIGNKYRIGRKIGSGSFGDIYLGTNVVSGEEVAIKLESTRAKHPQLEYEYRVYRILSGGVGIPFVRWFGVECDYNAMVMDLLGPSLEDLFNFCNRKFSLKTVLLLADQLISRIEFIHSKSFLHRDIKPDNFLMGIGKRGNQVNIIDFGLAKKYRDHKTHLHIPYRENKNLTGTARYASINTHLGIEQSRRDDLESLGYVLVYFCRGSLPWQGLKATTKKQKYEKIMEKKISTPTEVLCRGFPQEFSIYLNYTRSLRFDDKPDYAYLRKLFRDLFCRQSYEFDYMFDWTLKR
Description: pull-down; competitive equilibrium binding assay: as the equilibrium binding assay on peptide beads, with 25 μM substrate (casein or Rec11) added along with the kinase; fit constrained to Bmax = 1 for the apparent Kd; Ki from Kd(app)=Kd(1+[I]/Ki). The note with it: both partners purified.

The target in experiment [7] is MBP-Hhp1ΔC (Hhp1 amino acids 1 to 296) (S. pombe) (UniProt P40235). Description: ITC; Nano-ITC, 25°C, 10 mM NaPO4 (pH 7.5), 150 mM NaCl, 0.25 mM TCEP; cell: 100 μM MBP-Hhp1ΔC or MBP-CK1εΔC; syringe: 2 mM peptide; single-site binding model; duplicate.
The target in experiment [8] is T4, MBP-Hhp1ΔC (Hhp1 amino acids 1 to 296) (S. pombe, UniProt P40235 1-296).
T4 chain: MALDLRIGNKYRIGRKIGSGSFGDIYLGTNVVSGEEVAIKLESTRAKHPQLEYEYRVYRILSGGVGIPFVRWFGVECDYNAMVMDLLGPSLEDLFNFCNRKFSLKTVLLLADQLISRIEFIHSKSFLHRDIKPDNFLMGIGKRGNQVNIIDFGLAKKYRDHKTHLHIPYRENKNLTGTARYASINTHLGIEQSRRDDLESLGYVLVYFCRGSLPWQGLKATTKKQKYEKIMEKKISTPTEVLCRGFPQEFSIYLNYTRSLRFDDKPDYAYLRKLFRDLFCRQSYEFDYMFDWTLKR
Put plainly: apparent, in the presence of 25 uM Rec11.

In experiment [9] the target is T4, MBP-Hhp1ΔC (Hhp1 amino acids 1 to 296). Description: ITC; second replicate.

Chain of MBP-CK1εΔC (human CK1ε amino acids 1-294) (human) (P49674 1-294, stated change not applied): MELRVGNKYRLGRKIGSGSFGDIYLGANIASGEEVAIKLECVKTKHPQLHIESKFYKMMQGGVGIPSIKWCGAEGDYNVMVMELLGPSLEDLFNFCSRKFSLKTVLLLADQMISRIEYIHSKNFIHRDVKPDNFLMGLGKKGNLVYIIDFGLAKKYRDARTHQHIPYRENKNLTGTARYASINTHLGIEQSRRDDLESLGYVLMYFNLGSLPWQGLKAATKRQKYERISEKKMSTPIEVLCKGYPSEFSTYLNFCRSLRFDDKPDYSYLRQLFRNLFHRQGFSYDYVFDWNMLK
Chain of CK1ε CK1εΔC, 1-294 (P49674 383-416, stated change not applied): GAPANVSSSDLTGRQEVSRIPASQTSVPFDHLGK

For the molecule “MBP-Hhp1ΔC (Hhp1 amino acids 1 to 296) (from UniProt P40235 1-296) (domain or fragment)”, the Kd in [1] is 240 µM. In addition, the Kd(app) in the presence of 25 μM casein in experiment [2] was 658 µM. Take “Hhp1 C-terminus (Cter), 297-365 (from UniProt P40235) Cter-6P peptide”: the “binding against the reference” value with Hhp1 Hhp1ΔC, 1-296 was “gained”. On to “dephosphorylated alpha casein (natural protein)”, for which the Ki in experiment [3] worked out at 14 µM. Turning to “Hhp1 Hhp1ΔC, 1-296 (from UniProt P40235) Hhp1ΔC-VV”, the “binding against the reference” value in experiment [4] was “gained”. Consider “CK1ε extreme C-terminus (EC), 383-416 (from UniProt P49674) EC-6P peptide”, for which, in the experiment with CK1ε CK1εΔC, 1-294, the “binding against the reference” value is given as “gained”.

B1: Hhp1 Cter peptide (amino acids 297 to 365 of Hhp1, unphosphorylated, biotin-conjugated) (peptide)
peptide: Biotin-KTQQDQQHQQQLQQQLSATPQAINPPPERSSFRNYQKQNFDEKGGDINTTVPVINDPSATGAQYINRPN
Take B1: in the experiment with MBP-Hhp1ΔC-VV, the Kd was 269 µM.

B2: CK1ε EC-6P peptide (amino acids 383 to 416 of CK1ε, phosphorylated at six sites, biotin-conjugated) (peptide, UniProt P49674 383-416, looked up)
peptide: Biotin-GAPANV[pS][pS][pS]DLTGRQEVSRIPA[pS]Q[pT][pS]VPFDHLGK
notes: human CK1ε, final 34 amino acids, 383-416; source: synthetic peptide (LifeTein LLC)
With B2, the binding result with MBP-CK1εΔC-T220N is “binds”. Further, the Kd in experiment [5] is 343 µM.

B3: GST-Rec11-N3 (N terminus of Rec11, amino acids 1-33) (domain or fragment, UniProt Q92380 1-33, looked up)
chain: MRFEFESDASSHLNEVLTELESVELENVEYEGP
notes: Rec11, physiological Hhp1 substrate involved in meiosis, N terminus, amino acids 1-33; source: expressed and purified as previously described (16)
In the case of B3, the Ki in experiment [6] amounted to 32 µM.

B4: Hhp1 Cter-6P peptide (amino acids 297 to 365 of Hhp1, phosphorylated at six sites, biotin-conjugated) (peptide)
peptide: Biotin-KTQQDQQHQQQLQQQLSATPQAINPPPER[pS][pS]FRNYQKQNFDEKGGDIN[pT][pT]VPVINDP[pS]A[pT]GAQYINRPN
As to B4, the results for the Kd in experiment [7], in experiment [8] and in [9] were 335 µM, 425 µM and 283 µM, respectively.
